Data set [1] addresses T1, FKBP^1-380 (Homo sapiens, UniProt Q14318).
T1 construct: representing amino acids 1–380 and lacking the C-terminal trans-membrane helix; made in house; host or cells: E. coli BL21 (DE3)
In words: Gel-filtration chromatography, co-migration with FKBP^1-380 (as in the legend of Fig 2L). It counts as binding. Particulars: Fig 2L legend: yHsp90^546-709, FKBP^1-380 and their mixture; Superdex 200, pH 7.5.

The test system of data set [2] is FKBP^92-380. The data set can be described thus: Analytical gel-filtration chromatography, co-migration with FKBP^92-380. It counts as binding. Particulars: Superdex 200; equimolar mixture; 50 mM Tris, 300 mM NaCl, 1 mM EDTA, 0.5 mM TCEP, pH 7.5. The method, then: Equimolar concentrations of the C-terminal fragment of yHsp90^546-709 and FKBP^92-380 were mixed and loaded onto an analytical Superdex 200 column equilibrated in 50 mM Tris, 300 mM NaCl, 1 mM EDTA and 0.5 mM TCEP at pH 7.5.

The test system of data set [3] is K307E mutant of FKBP^92-380. The data set can be described thus: Isothermal titration calorimetry (ITC), binding to the K307E carboxylate clamp mutant. Particulars: 20 mM Tris, 300 mM NaCl, 1mM EDTA pH 7.5, 700 to 800 μM mutant injected into 50 μM yeast Hsp90^546-709. An excerpt: (§1) FKBP8 (FKBP^1-380) was cloned as an NdeI-HindIII fragment representing amino acids 1–380 and lacking the C-terminal trans-membrane helix into pDMXV4 with a non-cleavable C-terminal His6-Tag (Fig 1). The FKBP38 immunophilin domain, representing amino acids 92–207 (FKBP^92-207), and a larger fragment containing both the immunophilin and TPR domain (FKBP^92-380) were also cloned in pDMXV4 (Fig 1). The K307E mutation was generated in the FKBP8^92-380 construct by PCR mutagenesis. Full-length human Hsp90β, human Hsp70, two middle domain human fragments (Hsp90β^295–689 and Hsp90β^295–724) and a yeast C-terminal fragment of Hsp90 (yHsp90^546-709) were expressed from pRSETA as His-tagged fusions. The Hsp90α^464–732 construct was expressed from p2E (A. Oliver, University of Sussex), as a PreScission cleavable His-tagged fusion. […]
(§2) Proteins were dialysed overnight into 20 mM Tris, 300 mM NaCl, 1mM EDTA pH 7.5. The heat of interaction was measured on an ITC200 microcalorimeter (Microcal), with a cell volume of 200 μL, under the same buffer conditions. […] Heats of dilution were determined in a separate experiment by diluting protein into buffer, and the corrected data were fitted using a non-linear least-squares curve-fitting algorithm (Microcal Origin) with three floating variables: stoichiometry, binding constant and change in enthalpy of interaction.

For data set [4], the system named is yeast Hsp90. The arrangement: method as in 2 sources, ref [41] = [41]; PMID 12504007; doi:10.1016/s1097-2765(02)00785-2; 41 Panaretou B , Siligardi G , Meyer P , Maloney A , Sullivan JK , Singh S , et al Activation of the ATPase activity of hsp90 by the stress-regulated cochaperone aha1 . Mol Cell . 2002; 10 ( 6 ): 130 ||| ref [42] = [42]; PMID 9927435; doi:10.1093/emboj/18.3.754; 42 Prodromou C , Siligardi G , O'Brien R , Woolfson DN , Regan L , Panaretou B , et al Regulation of Hsp90 ATPase activity by tetratricopeptide repeat (TPR)-domain co-chaperones . Embo J . 1999; 18. Particulars: cited from earlier work.

Data set [5] has as its target T1, FKBP^1-380. The data set can be described thus: Isothermal titration calorimetry (ITC), binding to FKBP^1-380 (FKBP8 isoform lacking the transmembrane domain). The settings on record: ITC (ITC200); intact protein or domain fragment; 20 mM Tris, 300 mM NaCl, 1mM EDTA pH 7.5; method: 700 to 800 μM FKBP injected into 50 μM Hsp90; Fig 2 picture: Hsp90β into FKBP^1-380 (panel C).
Excerpt: as §1, §2
(In general: Isothermal titration calorimetry measures the heat released or taken up as one component is titrated into another.)

In data set [6] the target is FKBP^92-380. The data set can be described thus: Isothermal titration calorimetry (ITC), binding to FKBP^92-380 (FKBP38 isoform). Particulars: ITC (ITC200); 20 mM Tris, 300 mM NaCl, 1mM EDTA pH 7.5; 700 to 800 μM FKBP^92-380 injected into 50 μM intact Hsp90β.
Excerpt: as §1, §2

In data set [7] the test system is FKBP^92-207. In words: Isothermal titration calorimetry (ITC), binding to the immunophilin domain alone. Particulars: full-length Hsp90β, 20 mM Tris, 300 mM NaCl, 1mM EDTA pH 7.5, 700 to 800 μM FKBP^92-207 injected into 50 μM Hsp90β.
Excerpt: as §1, §2

“Also recorded” adds a separate entry of the source. Read-outs that look alike come from different tables or passages of the source.

Consider five substances from PMC5344419, “The structure of FKBP38 in complex with the MEEVD tetratricopeptide binding-motif of Hsp90” (PLoS ONE, 2017).

T1 sequence (Q14318 1-380): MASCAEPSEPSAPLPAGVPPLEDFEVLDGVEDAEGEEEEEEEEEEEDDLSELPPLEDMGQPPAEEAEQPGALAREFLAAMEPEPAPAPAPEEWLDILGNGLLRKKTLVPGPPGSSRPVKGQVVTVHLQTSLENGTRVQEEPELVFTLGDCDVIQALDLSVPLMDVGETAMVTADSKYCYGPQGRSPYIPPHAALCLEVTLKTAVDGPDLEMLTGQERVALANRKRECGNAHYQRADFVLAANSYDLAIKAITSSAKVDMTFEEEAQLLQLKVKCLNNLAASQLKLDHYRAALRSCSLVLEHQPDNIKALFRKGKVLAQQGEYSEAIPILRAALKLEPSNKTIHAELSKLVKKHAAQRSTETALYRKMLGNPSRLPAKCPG

As for “yHsp90^546-709: yeast C-terminal fragment of Hsp90”, the “co-migration in gel filtration” value in data set [1] is “co-migrate as a complex”; in data set [2], “co-migrated”. For the same substance, the “binding (in words)” value in data set [3] is “failed to bind”.
As to Cpr6: yeast peptidyl-propyl isomerase, in data set [4] (peptidyl-propyl isomerase Cpr6, previous studies, ref [41]), the “effect on ATPase activity of yeast Hsp90” value is listed as “weakly activates”.
With “Sti1: TPR domain protein Sti1 (HOP in humans)”, the “effect on ATPase activity of yeast Hsp90” value in data set [4] (TPR domain protein Sti1 (HOP in humans), previous studies, ref [42]) is recorded as “inhibit; also recorded: strong inhibitor”.
As usually defined, the Kd is the free concentration of one partner at which half of the binding sites on the other are occupied at equilibrium, for simple one-to-one binding. A higher Kd goes with weaker binding. In turn, “Hsp90β^295-724: fragment representing the middle and C-terminal domain of Hsp90β” came in with an equilibrium dissociation constant (Kd) in data set [5] of 6.4 ± 0.5 µM.
“Hsp90β: Full-length human Hsp90β, expressed as His-tagged fusion”: the dissociation constant Kd in data set [5] came to 2.8 ± 0.1 µM; in data set [6], 2.6 ± 0.2 µM. For the same substance, the “binding (in words)” value in data set [7] is recorded as “failed to bind”.
